Results published in patent US20100297703A1 (published 2010).

Experiments:
Assay in all cases: anti-FLAG purification of YoeB-3×FLAG from cell surface extract, SDS-PAGE band integration of the co-purified protein
CwlF protein = target: T1, CwlF protein (Bacillus subtilis, UniProt P54421 26-334)
T1 construct: Endogenous protein of the WE1YoeB3FL strain, co-purified with YoeB-3×FLAG
Experimental: (§1) After the pre-culture, the pre-cultured strain was inoculated in 50 ml of LB liquid medium to bring the OD₆₀₀ value to 0.01, and main culture was conducted until the OD₆₀₀ value reached 2.0. After the completion of the culture, the culture solution was centrifuged at 10,000 rpm for 10 minutes. The supernatant was removed and the precipitate was washed with 25 mM Tris-HCl (pH 7.2). The washed precipitate was suspended in 3M LiCl (25 mM Tris-HCl, pH 7.2) to a density of 10 μl/OD, and the suspension was allowed to stand on ice for 20 minutes. Thereafter, centrifugation was carried out at 4° C. and 10,000 rpm for 10 minutes. The supernatant was recovered, TCA (trichloroacetic acid) was added to a final concentration of 5%, the mixture was thoroughly mixed, and the resulting suspension was allowed to stand on ice for 60 minutes. Thereafter, centrifugation was carried out at 4° C. and 15,000 rpm for 5 minutes. The supernatant was removed, and the precipitate was rinsed with 70% ethanol to thoroughly remove TCA. Thus, outer surface proteins were extracted from the WE1YoeB3FL strain and the WE1E3FL strain, respectively.
(§2) The mixture was mildly (8 rpm) agitated at 4° C. for 1 hour. Thereafter, centrifugation was carried out at 5,000 rpm for 1 minute. The supernatant was removed while carefully refraining from suctioning the precipitated gel. Thereafter, 500 μl of TBS buffer was added to prepare a suspension. Thereafter, the gel was transferred to the Spin Column (Micro Bio Spin Chromatography Columns (BIO RAD)), and the gel was trapped via centrifugation at 1,000 g for 30 seconds. Thereafter, the resultant was washed three times with 500 μl of TBS buffer. Subsequently, 100 μl of Glycine HCl elution buffer (0.1M glycine-HCl) was sequentially added thereto and thoroughly agitated. Elution was carried out 1 minute later at 1,000 g for 30 seconds, and this procedure was repeated two times. The products were combined to prepare an eluted solution.
(§3) Subsequently, the band pattern of the resulting eluted solution was inspected via SDS-PAGE. Electrophoresis was carried out by charging proteins in amounts corresponding to the amount extracted from the cells (OD₆₀₀=200) to the relevant lanes.

CwlE protein = target: T2, CwlE protein (Bacillus subtilis, UniProt O07532 27-488)
T2 construct: Endogenous protein of the WE1YoeB3FL strain, co-purified with YoeB-3×FLAG
Experimental: as §1, §2, §3

YojL protein = YojL protein (Bacillus subtilis, UniProt O31852 27-414)
Experimental: as §1, §2, §3

T2 sequence (O07532 27-488 limits assumed): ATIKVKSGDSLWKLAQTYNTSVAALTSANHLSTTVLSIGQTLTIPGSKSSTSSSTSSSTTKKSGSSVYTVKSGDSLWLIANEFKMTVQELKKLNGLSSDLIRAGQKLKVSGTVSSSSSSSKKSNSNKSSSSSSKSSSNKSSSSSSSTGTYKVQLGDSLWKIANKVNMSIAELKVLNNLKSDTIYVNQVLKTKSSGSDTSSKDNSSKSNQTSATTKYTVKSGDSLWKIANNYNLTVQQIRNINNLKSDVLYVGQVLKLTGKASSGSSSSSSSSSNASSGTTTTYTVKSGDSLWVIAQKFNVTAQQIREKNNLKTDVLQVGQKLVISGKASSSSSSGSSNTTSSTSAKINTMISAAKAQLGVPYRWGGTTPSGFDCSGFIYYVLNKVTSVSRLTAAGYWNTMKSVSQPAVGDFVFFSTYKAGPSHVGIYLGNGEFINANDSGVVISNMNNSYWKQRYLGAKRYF
T1 sequence (P54421 26-334 limits assumed): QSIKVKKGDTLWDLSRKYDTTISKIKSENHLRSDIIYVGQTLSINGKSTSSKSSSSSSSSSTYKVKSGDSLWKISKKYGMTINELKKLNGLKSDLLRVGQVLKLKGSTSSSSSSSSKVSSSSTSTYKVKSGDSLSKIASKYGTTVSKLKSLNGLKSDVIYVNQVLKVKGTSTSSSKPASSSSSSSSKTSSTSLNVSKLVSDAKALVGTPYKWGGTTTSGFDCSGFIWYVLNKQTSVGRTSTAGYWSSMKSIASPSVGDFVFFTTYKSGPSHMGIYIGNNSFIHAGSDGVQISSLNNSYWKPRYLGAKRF

Integrated value (CwlF protein): 1250 | Integrated value/Molecular weight (CwlF protein): 0.03 | Proportion relative to YoeB (1) (CwlF protein): 0.05 | Integrated value (CwlE protein): 30100 | Integrated value/Molecular weight (CwlE protein): 0.59 | Proportion relative to YoeB (1) (CwlE protein): 0.89 | Integrated value (YojL protein): 989 | Integrated value/Molecular weight (YojL protein): 0.02 | Proportion relative to YoeB (1) (YojL protein): 0.03
B1: YoeB-3×FLAG protein (other)
chain: KNTSGDLSQKQALQLALSAREHFWNTMSGHNPKVKKAVCPSGTFEYQNLQYVYMCSDLGTKAKAVNYLTPIFTKTAIEKGFKDYHFTVSKGKLAVPIGDGDNLLNWKKSTAKLISKKGSTITYEFTVPTLDGSPSAKRKVTFVKENKKWKVNQFDAVI
notes: Expressed in B. subtilis WE1 from pCA3FLYoeB with IPTG, extracted from the cell surface with LiCl and purified on anti-FLAG M2 gel; also called YoeB protein (bait from the WE1YoeB3FL strain); not shown: 3×FLAG tag
